Test [1] deals with T1, Recombinant human macrophage mannose receptor (MMR) (human, UniProt P22897 19-1383, limits assumed).
T1 construct: Bought; Amine-coupled to a CM5 chip at 13745 RU; also called CD206
T1 sequence (looked up): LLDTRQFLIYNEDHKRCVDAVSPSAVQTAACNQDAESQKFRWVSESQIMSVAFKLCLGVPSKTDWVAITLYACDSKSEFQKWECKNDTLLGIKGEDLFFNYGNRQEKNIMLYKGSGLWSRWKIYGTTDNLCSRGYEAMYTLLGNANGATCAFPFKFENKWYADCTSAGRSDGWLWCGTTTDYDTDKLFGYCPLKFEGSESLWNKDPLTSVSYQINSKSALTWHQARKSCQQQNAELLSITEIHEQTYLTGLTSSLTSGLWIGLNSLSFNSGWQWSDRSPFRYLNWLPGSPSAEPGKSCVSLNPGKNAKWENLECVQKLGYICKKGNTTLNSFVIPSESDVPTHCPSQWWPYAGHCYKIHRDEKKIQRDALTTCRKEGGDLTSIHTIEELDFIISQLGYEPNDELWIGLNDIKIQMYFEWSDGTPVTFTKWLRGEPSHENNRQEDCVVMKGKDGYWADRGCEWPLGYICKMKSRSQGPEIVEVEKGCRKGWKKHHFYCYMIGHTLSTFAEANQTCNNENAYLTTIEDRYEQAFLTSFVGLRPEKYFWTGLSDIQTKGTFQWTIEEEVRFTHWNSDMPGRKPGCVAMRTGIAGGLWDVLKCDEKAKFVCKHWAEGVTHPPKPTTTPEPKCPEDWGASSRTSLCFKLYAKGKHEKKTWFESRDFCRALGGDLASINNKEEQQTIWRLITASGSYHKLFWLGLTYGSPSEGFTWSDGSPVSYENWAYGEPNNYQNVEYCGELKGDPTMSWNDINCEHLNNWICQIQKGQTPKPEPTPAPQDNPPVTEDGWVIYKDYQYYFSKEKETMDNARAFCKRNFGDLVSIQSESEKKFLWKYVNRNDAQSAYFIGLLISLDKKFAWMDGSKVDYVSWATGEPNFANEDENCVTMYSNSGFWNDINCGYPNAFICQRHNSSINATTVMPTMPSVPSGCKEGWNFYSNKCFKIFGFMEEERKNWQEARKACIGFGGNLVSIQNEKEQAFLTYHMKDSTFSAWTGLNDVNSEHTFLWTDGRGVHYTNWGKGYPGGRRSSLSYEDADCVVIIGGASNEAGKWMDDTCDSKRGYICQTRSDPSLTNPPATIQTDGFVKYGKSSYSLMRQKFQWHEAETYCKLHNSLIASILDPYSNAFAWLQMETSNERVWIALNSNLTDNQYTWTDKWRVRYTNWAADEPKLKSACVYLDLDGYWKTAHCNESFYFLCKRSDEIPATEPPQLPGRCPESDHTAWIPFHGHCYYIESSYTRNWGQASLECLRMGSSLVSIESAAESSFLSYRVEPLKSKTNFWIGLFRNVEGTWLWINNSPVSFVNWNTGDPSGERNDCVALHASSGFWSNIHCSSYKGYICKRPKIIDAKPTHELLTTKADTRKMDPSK
The test can be described thus: SPR (Biacore 2000), receptor amine-coupled on CM5 chip, fusion protein as analyte, apparent Kd from steady state. As to the method:
(§1) Immunoglobulin fusion proteins of PSGL-1 and AGP produced in wild type Pichia and purified, as described in Example 1, were used in experiments to assess their ability to bind to recombinant human macrophage mannose receptor (MMR), DC-SIGN/Fc chimera and mannan binding lectin (MBL) Using Biacore (real time surface plasmon resonance spectroscopy) analysis as follows.
(§2) Analyses were performed using a Biacore 2000 instrument (Biacore, GE Healthcare, Uppsala, Sweden). Recombinant human macrophage mannose receptor (MMR), DC-SIGN/Fc chimera and mannan binding lectin (MBL) were purchased from R & D Systems and immobilized on a CM5 sensor chip using amine coupling chemistry according to the manufacturer's instructions. Briefly, activation of the surface was made with EDC/NHS 1:1, 10 μL/min for 7 minutes and the receptors were dissolved in sodium acetate buffer pH 4.5 at concentrations of 15 μg/ml for MMR, 10 μg/ml for DC-SIGN and 90 μg/ml for MBL and immobilized at 10 μl/min for 7 minutes. Deactivation of excess of reactive groups was made with ethanolamine, 20 μl/min for 7 minutes. […] Data were calculated using BIAevaluation 4.1 software (Biacore, GE Healthcare) and the apparent equilibrium dissociation constants (Kd) were calculated by plotting steady state binding levels against the analyte concentrations for several concentrations simultaneously. […]
For orientation: SPR reads the build-up and loss of mass on a sensor chip optically.

Test [2] has as its target T2, DC-SIGN/Fc chimera (human, UniProt Q9NNX6 62-404).
T2 construct: Amine-coupled to a CM5 chip at 8312 RU; also called CD209; dendritic cell-specific ICAM-3-grabbing nonintegrin; Fc part of the bought chimera not given
T2 sequence (looked up): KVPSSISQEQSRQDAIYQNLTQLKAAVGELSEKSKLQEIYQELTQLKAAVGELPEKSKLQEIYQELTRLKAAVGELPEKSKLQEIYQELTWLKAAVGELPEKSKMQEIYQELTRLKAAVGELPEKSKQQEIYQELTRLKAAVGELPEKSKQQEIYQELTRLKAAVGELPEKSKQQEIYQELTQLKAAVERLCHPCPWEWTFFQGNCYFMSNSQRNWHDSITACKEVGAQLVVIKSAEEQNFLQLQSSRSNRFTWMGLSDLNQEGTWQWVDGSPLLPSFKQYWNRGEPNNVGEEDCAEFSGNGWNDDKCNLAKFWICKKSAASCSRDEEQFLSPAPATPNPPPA
Described as above. The procedure: as §1, §2

B1: PSGL-1/mIgG2b fusion protein produced in Pichia pastoris (Fc fusion, UniProt Q14242 18-320, looked up)
chain: LQLWDTWADEAEKALGPLLARDRRQATEYEYLDYDFLPETEPPEMLRNSTDTTPLTGPGTPESTTVEPAARRSTGLDAGGAVTELTTELANMGNLSTDSAAMEIQTTQPAATEAQTTQPVPTEAQTTPLAATEAQTTRLTATEAQTTPLAATEAQTTPPAATEAQTTQPTGLEAQTTAPAAMEAQTTAPAAMEAQTTPPAAMEAQTTQTTAMEAQTTAPEATEAQTTQPTATEAQTTPLAAMEALSTEPSATEALSMEPTTKRGLFIPFSVSSVTHKGIPMAASNLSVNYPVGAPDHISVKQC
modifications: O-linked mannose glycans (Hex2-9) and N-linked glycans from expression in P. pastoris; sites not given
notes: extracellular domain; Homodimeric chimeric glycoprotein, about 250-300 kDa, secreted from P. pastoris GS115 by the pPICZalpha vector and purified on MabSelect SuRe; also called PSGL-1/mlgG2b; Pp/PSGL1-mIgG2b; not shown: Fc part of mouse IgG2b
Take B1: the Kd in test [1] worked out at 76.7 nM; in test [2] it was 8.82 nM.
